How the values were obtained:
[1] = target: T1, mouse TLR7-Flag, expressed in HEK293 cells (mouse, UniProt P58681 27-1050); assay: flow cytometry on fixed and permeabilised HEK293 cells expressing mouse TLR7-Flag
T1 construct: not shown: Flag tag
T1 sequence: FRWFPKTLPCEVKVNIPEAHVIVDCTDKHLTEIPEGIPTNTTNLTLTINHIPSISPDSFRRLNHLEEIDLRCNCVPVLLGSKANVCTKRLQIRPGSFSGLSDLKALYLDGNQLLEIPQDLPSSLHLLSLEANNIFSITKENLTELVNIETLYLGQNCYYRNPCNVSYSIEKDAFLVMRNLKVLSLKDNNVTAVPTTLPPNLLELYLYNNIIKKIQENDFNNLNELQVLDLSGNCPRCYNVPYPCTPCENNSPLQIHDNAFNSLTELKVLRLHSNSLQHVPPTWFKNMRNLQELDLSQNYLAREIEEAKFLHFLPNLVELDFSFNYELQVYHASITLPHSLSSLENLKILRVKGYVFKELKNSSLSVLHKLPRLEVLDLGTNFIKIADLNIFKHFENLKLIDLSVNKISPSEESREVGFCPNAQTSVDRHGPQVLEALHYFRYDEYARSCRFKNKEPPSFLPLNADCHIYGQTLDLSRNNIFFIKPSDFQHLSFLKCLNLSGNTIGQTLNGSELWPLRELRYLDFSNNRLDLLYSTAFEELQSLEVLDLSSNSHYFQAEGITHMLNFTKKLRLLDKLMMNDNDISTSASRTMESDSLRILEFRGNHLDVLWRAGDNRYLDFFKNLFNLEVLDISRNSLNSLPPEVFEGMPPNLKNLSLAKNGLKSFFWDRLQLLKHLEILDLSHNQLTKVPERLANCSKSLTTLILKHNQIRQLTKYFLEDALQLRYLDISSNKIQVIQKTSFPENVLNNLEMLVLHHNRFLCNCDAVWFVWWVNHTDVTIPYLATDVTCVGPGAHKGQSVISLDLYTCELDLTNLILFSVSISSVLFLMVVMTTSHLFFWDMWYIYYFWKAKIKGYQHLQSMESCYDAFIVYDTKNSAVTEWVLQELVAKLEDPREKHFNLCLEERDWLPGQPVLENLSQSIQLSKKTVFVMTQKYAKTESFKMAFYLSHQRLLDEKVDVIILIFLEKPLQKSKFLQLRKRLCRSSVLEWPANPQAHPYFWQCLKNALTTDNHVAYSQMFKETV
Excerpt: (§1) The HEK293 cells expressing human TLR7 (variant 1)-Flag prepared in 8)-1, the HEK293 cells expressing human TLR7 (variant 2)-Flag prepared in 8)-2, the HEK293 cells expressing monkey TLR7-Flag prepared in 8)-3, the HEK293 cells expressing mouse TLR7-Flag prepared in 8)-4, and the HEK293 cells expressing rat TLR7-Flag prepared in 8)-5 were immobilized/subjected to membrane permeation with a Fixation and Permeabilization Solution (Becton, Dickinson and Company) and thereafter stained using huAT01_H3L2_IgG1LALA, which is one of the humanized anti-human TLR7 antibodies, and ALEXA FLUOR® 647 AffiniPure Goat anti-human IgG+IgM (H+L) (Jackson ImmunoResearch Inc.), which is the secondary antibody.
(§2) The binding of the humanized anti-human TLR7 antibody to human TLR7 was detected based on flow cytometry (Miltenyi Biotec K.K.), and the data was analyzed using software (Flowjo) which analyzes the data of flow cytometry.

[2] = target: T2, human TLR7 (variant 1)-Flag, expressed in HEK293 cells (human, UniProt Q9NYK1 27-1049); assay: flow cytometry on fixed and permeabilised HEK293 cells expressing human TLR7 (variant 1)-Flag
T2 construct: Transient expression from pcDNA3.1 in Lenti-X HEK293T cells; cells fixed and permeabilised before staining; not shown: Flag tag
T2 sequence: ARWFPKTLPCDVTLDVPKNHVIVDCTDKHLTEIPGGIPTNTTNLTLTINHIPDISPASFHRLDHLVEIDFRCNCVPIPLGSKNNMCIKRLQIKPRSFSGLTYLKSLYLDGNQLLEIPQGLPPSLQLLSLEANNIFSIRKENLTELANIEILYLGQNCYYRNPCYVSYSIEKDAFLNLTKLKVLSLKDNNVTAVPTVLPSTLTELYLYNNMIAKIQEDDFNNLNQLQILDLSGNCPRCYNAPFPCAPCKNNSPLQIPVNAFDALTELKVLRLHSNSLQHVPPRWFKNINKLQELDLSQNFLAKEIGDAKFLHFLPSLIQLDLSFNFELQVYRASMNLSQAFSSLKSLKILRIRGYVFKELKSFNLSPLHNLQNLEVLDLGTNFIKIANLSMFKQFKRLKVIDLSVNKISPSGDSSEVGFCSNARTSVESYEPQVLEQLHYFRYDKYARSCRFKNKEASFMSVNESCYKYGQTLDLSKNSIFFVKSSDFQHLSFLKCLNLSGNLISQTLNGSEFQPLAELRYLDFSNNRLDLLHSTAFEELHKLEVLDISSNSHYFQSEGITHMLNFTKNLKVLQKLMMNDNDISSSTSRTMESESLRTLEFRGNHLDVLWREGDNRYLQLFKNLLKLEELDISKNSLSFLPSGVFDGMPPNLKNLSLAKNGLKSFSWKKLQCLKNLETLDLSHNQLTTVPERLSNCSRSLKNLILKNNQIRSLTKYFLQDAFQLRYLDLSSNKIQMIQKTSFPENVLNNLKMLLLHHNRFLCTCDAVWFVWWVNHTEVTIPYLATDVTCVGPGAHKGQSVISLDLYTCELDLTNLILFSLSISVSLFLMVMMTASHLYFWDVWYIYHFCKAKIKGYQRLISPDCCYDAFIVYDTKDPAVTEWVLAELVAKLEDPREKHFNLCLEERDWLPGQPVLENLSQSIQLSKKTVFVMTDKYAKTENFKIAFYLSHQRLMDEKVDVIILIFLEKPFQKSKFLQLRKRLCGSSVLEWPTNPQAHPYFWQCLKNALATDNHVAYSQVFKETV
Excerpt: as §1, §2

B1: huAT01_H3L2_IgG1LALA antibody (antibody, V domains shown)
VH: QVQLVQSGAEVKKPGASVKVSCKASGYTFTNNWLHWVRQAPGQGLEWMGDIYPSNGRTNYAQKFQGRVTLTVDKSTSTAYMELSSLRSEDTAVYFCARERGYFDYWGQGTLVTVSS
VL: DIQMTQSPSSLSASVGDRVTITCKASQDINKYIAWYQQKPGKAPKLLIHYTSTLQPGIPSRFSGSGSGRDYTLTISSLQPEDFATYYCLQYDYLLTFGQGTKVEIKR
notes: Humanized AT01; heavy huAT01_H3_IgG1LALA, light huAT01_L2
Does B1 bind [1]?
Result: no binding

Does B1 bind [2]?
Result: binds

From patent US20230212306A1 (Daiichi Sankyo, published 2023)
